Measured values: article PMC7262448

Tests used:
human plasma proteins = test: EScalate equilibrium shift assay; binding of peptide to the proteins of human or mouse plasma; percentage of peptide unbound, determined in duplicate
mouse plasma proteins = test: as above
[1] = target: human SNAP-GLP-1R (human) (UniProt P43220)
mouse GLP-1R (mouse) = mouse GLP-1R (mouse) (UniProt O35659)
rat GLP-1R (rat) = rat GLP-1R (rat) (UniProt P32301)
[2] = target: human SNAP-GLP-1R (human) (UniProt P43220); test: FRET or BRET

mouse GLP-1R (mouse), sequence (O35659 22-463): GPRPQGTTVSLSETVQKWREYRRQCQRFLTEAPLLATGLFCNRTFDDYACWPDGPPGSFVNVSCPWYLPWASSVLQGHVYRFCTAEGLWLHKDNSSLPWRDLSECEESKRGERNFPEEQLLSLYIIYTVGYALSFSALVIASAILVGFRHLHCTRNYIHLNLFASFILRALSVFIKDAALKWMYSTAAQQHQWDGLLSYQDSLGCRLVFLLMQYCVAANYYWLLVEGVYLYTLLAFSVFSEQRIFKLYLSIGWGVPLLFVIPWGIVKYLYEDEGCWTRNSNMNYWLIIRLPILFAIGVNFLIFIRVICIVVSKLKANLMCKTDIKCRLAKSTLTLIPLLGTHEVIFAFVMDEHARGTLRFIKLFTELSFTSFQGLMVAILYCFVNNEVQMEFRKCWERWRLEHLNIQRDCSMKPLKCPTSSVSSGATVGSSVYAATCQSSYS
human SNAP-GLP-1R (human), sequence (P43220 24-463): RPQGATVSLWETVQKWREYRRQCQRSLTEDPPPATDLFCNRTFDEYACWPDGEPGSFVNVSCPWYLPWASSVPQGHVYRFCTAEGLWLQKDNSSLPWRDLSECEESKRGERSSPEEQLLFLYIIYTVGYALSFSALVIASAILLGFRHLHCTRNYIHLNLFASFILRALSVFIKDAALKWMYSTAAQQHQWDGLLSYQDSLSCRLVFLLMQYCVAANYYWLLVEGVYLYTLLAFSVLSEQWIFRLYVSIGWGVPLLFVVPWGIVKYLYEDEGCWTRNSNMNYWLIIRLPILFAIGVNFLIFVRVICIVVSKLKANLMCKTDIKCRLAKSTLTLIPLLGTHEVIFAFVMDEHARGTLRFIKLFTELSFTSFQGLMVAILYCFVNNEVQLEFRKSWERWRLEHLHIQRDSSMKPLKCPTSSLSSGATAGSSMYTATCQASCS
rat GLP-1R (rat), sequence (P32301 22-463): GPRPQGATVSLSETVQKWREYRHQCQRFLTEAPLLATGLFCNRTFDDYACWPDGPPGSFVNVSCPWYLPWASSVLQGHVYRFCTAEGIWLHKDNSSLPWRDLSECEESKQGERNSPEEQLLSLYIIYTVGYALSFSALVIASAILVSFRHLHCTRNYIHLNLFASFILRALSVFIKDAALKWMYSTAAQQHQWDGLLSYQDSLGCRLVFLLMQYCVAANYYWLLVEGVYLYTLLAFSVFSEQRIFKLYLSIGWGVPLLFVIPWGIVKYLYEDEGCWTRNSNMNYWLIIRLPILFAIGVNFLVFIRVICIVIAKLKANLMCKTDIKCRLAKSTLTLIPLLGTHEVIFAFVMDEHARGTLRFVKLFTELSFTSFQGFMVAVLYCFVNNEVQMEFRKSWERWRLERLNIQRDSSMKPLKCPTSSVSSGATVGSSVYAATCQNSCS

Substance	unbound fraction (fu) (human plasma proteins) [%]	unbound fraction (fu) (mouse plasma proteins) [%]	cAMP (1% FBS), HEK293-SNAP-GLP-1R cells, Emax [1] [% max]	cAMP (1% FBS), HEK293-SNAP-GLP-1R cells, pEC50 [1]	cAMP, MIN6B1 cells (with IBMX), Emax (mouse GLP-1R (mouse)) [% max]	cAMP, MIN6B1 cells (with IBMX), pEC50 (mouse GLP-1R (mouse))	cAMP, INS-1 832/3 cells (with IBMX), Emax (rat GLP-1R (rat)) [% max]	cAMP, INS-1 832/3 cells (with IBMX), pEC50 (rat GLP-1R (rat))	pKd [2]
[G^40,K^41.C16 diacid]exendin-4 (from UniProt P26349 48-87) (peptide)	2.3	2.6							
[F^1,G^40,K^41.C16 diacid]exendin-4 (peptide)	2.1	2.4	49	8.2 pEC50 (M)	98	7.9 pEC50 (M)	41	7.5 pEC50 (M)	8.3 pKd (M)
D^3-exendin-4 (peptide)			96	10.6 pEC50 (M)	101	11 pEC50 (M)	100	9 pEC50 (M)	9.1 pKd (M)
F^1-exendin-4 (peptide)			83	9 pEC50 (M)	97	9.2 pEC50 (M)	97	8.4 pEC50 (M)	7.8 pKd (M)
[D^3,G^40,K^41.C16 diacid]exendin-4 (peptide)	2.2	2.1	97	10.4 pEC50 (M)	97	10.8 pEC50 (M)	101	8.7 pEC50 (M)	8.9 pKd (M)
